Test results published in patent US20230087785A1, “Leucine-Rich Repeat Kinase 2 Allosteric Modulators” (VIB VZW, priority 2020, published 2023).

B1: Nb17: LRRK2-specific Nanobody, SEQ ID NO: 5 (protein)
VHH: MAQVQLVESGGGLVQPGGSLRLSCAASGSNIGYMAWYRQAPGSQRELVARIASGGSANYADSVKGRFTISRDNVKNTVYLHMNSLKPVDTAVYYCHADAWYNSRWSDYWGQGTQVTVSS
modifications: Nanobody CA13606
B2: Nb40 (CA14135)-GFP fusion (VHH)
VHH: QVQLVESGGGLVQPGGSLRLSCVASGTIYAINRMGWYRQAPGKQRELVALITLGGGTNYGDSVKGRFTISRDNAKNTGYLQMNSLKPEDTAVYYCKVESSGYTDVFWGQGTQVTVSS
notes: expressed in cells as intrabody; also called GFP-Nb40; fluobody Nb40; not shown: enhanced GFP fused to the C-terminus of the Nb (pEGFP-N1)
B3: Nb38 (CA14133)-GFP fusion (VHH)
VHH: QVQLVESGGGLVQPGGSLRLSCAASGSIRSIATSAWYRQPPGKQRELVAGISSGTTTNYADSVKGRFTISRDNAKNTVYLQMNSLKPEDTAVYYCHAWISGTWISGQGTQVTVSS
notes: expressed in cells as intrabody; also called GFP-Nb38; fluobody Nb38; not shown: enhanced GFP fused to the C-terminus of the Nb (pEGFP-N1)
B4: Nb23 (CA13612)-GFP fusion (VHH)
VHH: QVQLVESGGGLVQAGGSLRLSCAASGRTFSRYTMGWFRQAPGKDREFVARITTSGAVTTYADSAKGRFTISRDNAKNTVYLQMNTLKPEDTAVYYCAAGQGQLSSQSRFVDYWGQGTQVTVSS
notes: expressed in cells as intrabody; also called GFP-Nb23; fluobody Nb23; not shown: enhanced GFP fused to the C-terminus of the Nb (pEGFP-N1)
B5: Nb40: LRRK2-specific Nanobody, SEQ ID NO: 4 (protein)
VHH: MAQVQLVESGGGLVQPGGSLRLSCVASGTIYAINRMGWYRQAPGKQRELVALITLGGGTNYGDSVKGRFTISRDNAKNTGYLQMNSLKPEDTAVYYCKVESSGYTDVFWGQGTQVTVSS
modifications: Nanobody CA14135
B6: Nb22 (CA13611)-GFP fusion (VHH)
VHH: QVQLVESGGGLVQAGGSLRLSCAASGRTFSSYTMGWFRQAPGKEREFVAAIRWSGGSTYYADSVKGRFTISRDNAKNTVYLQMNSLKPEDTAVYYCAASDRGGFIATSGGWMDYWGKGTQVTVSS
notes: expressed in cells as intrabody; also called GFP-Nb22; fluobody Nb22; not shown: enhanced GFP fused to the C-terminus of the Nb (pEGFP-N1)

Key:
LRRK2(G2019S) = target: T1, LRRK2(G2019S) (Homo sapiens, UniProt Q5S007, G2019S/M2397T/R50H); assay: In cellulo phospho-Rab / LRRK2 autophosphorylation assay in HEK293T cells; format: cell-based; parameters: key to Functional Group (see FIG. 2d): Group 1: group 1: Nbs that inhibit both LRRK2 autophosphorylation and Rab10 phosphorylation in cells; Group 2: group 2: Nbs that inhibit only Rab10 phosphorylation; Group 3: group 3: Nbs that activate LRRK2 kinase activity; Group 4: group 4: Nbs that have no consistent/clear effect on LRRK2 kinase activity; conditions: for LRRK2 autophosphorylation at position S1292 / influence on LRRK2 kinase activity compared to the controls / Rab10 phosphorylation at position T72: HEK 293T cells co-expressing LRRK2(G2019S), Rab29 and Nb-GFP; for influence on LRRK2 kinase activity compared to the controls: Western blot; for Functional Group (see FIG. 2d): classification by effect on in cellulo LRRK2(G2019S) kinase activity; for Rab10 phosphorylation at position T72: endogenous Rab10
T1 construct: SF tag (FLAG + Twin-Strep); expressed in transfected cells; host or cells: HEK 293T
How it was run: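 Cells co-transfected (PEI) with SF-tagged LRRK2(G2019S), FLAG-HA Rab29 and Nb-GFP fusions, lysed after 48 hrs. Western blot read LRRK2 pS1292 and endogenous Rab10 pT72 with site-specific antibodies, referenced to total LRRK2 and Rab10; ECL chemiluminescence on film.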

mScarlet-LRRK2 = target: T2, mScarlet-LRRK2 (Homo sapiens, UniProt Q5S007, M2397T/R50H); assay: Confocal microscopy of LRRK2 microtubule localization in HEK293 cells; format: cell-based; conditions: HEK293 cells co-transfected with mScarlet-LRRK2 and GFP-Nb, treated with 1 μM MLi-2
T2 construct: expressed in transfected cells; host or cells: HEK293
Excerpt: HEK 293 cells were co-transfected with the indicated GFP-Nbs and mScarlet-LRRK2. […] Scale bar 5 μm.
FIG. 6. […] Scale bar 5 μm.
The binding of LRRK2 to microtubules subsequently reduces the kinesin—and dynein-mediated transport along microtubules.
Recent structural information has linked LRRK2 microtubule relocalization to the conformation of the kinase domain, with a closed conformation favoring LRRK2 binding to microtubules. As a consequence, the commonly used ATP-competitive type I LRRK2 inhibitors trigger this effect. In addition, it was shown before that the WD40 domain is indispensable for LRRK2-microtubule association.
A HEK293 cell line was cultured in complete media (high-glucose Dulbecco's modified Eagle's medium, 10% fetal bovine serum and Penicillin-Streptomycin-Glutamine (Gibco)). Cells were seeded on 8-well p-Slide(Ibidi) and transfected at a confluency of 50-70% with GFP-Nb and mScarlet-LRRK2 constructs, using JetPEI reagent (Polyplus transfection). […] Data acquisition was done with a ×100 oil-immersion objective with a Zeiss LSM800 confocal laser scanning microscope. Image analysis of z-scan was done using the Zeiss microscope software ZEN.

endogenous LRRK2 = target: T3, endogenous LRRK2 (Mus musculus, UniProt Q5S006); assay: Colocalization of GFP-Nbs with endogenous LRRK2 on zymosan-containing phagosomes in RAW264.7 cells; format: cell-based; conditions: RAW264.7 cells transfected with GFP-Nbs, zymosan 30 mins, fixed cells
T3 construct: endogenous in cells; host or cells: RAW264.7
Procedure: RAW264.7 cells were transfected with GFP-fused Nbs and treated with Zymosan for 30 mins. Recruitment of LRRK2 and Nbs to the phagosomes was analyzed by immunofluorescence. FIG. 16A, images for Nb38, Nb22, Nb23, Nb40, No Nb, or Irrelevant (IRR) Nb treatments; FIG. 16B, images for Nb36, Nb42, Nb17, Nb39, Nb1, and Nb6 treatments. Scale bar=10 μm.
(§1) To test whether Nbs can trace and visualize endogenous LRRK2 in fixed cells, we generated green fluorescent protein (GFP)-Nb fusions (fluobodies) as described before. Recently, it was shown that LRRK2 is recruited to phagosomes upon induction of phagocytosis in immune cells. Therefore, RAW264.7 cells were transfected with these fluobodies and treated with killed yeast bioparticles “zymosan” to induce phagocytosis.
(§2) RAW264.7 cells (ATCC® SC-6003™) were transfected with peGFP-Nb constructs using JetOPTIMUS (Polyplus transfection) for 24 hrs and then stimulated with Zymosan particles (Sigma Aldrich) for 30 mins ([…]). Immunostaining for LRRK2 was performed as reported before. Briefly, cells fixed with 4% (w/v) paraformaldehyde for 30 min, followed by treatment with 100% EtOH at −20° C. Sampled were permeabilized with PBS/0.5% Triton X-100 and blocked with 3% BSA. Primary antibodies (rabbit anti-LRRK2, c41-2, Abcam and mouse anti-GFP, G6539, Sigma Aldrich) were diluted in PBS containing 3% BSA and 0.5% Triton X-100 and incubated overnight at 4° C. After three 5-min washes with PBS, secondary fluorescently labeled antibodies (anti-rabbit-Alexa fluor 568 and anti-mouse-Alexa fluor 488, Invitrogen) were added in a similar manner to primary antibodies and incubated for 1 hour at room temperature. Cells were washed twice with 1×PBS and mounted with Fluroshield antifade reagent with DAPI (SigmaAldrich). Images were acquired on Zeiss LSM800 confocal laser scanning microscope. Image analysis of z-scan was done using the Zeiss microscope software ZEN.

[1] = target: T4, endogenous mouse LRRK2 (RAW264.7 cells) (mouse, UniProt Q5S006 1-2527); assay: immunofluorescence colocalisation of GFP-Nb and LRRK2 in RAW264.7 cells
T4 construct: also called endogenous LRRK2
Excerpt: as §1
as §2, with “After three 5-min washes with PBS, secondary fluorescently labeled antibodies (anti-rabbit-Alexa fluor 568 and anti-mouse-Alexa fluor 488, Invitrogen) were added in a similar manner to primary antibodies and incubated for 1 hour at room temperature.” left out

T1 sequence (Q5S007 whole entry R50H/G2019S/M2397T): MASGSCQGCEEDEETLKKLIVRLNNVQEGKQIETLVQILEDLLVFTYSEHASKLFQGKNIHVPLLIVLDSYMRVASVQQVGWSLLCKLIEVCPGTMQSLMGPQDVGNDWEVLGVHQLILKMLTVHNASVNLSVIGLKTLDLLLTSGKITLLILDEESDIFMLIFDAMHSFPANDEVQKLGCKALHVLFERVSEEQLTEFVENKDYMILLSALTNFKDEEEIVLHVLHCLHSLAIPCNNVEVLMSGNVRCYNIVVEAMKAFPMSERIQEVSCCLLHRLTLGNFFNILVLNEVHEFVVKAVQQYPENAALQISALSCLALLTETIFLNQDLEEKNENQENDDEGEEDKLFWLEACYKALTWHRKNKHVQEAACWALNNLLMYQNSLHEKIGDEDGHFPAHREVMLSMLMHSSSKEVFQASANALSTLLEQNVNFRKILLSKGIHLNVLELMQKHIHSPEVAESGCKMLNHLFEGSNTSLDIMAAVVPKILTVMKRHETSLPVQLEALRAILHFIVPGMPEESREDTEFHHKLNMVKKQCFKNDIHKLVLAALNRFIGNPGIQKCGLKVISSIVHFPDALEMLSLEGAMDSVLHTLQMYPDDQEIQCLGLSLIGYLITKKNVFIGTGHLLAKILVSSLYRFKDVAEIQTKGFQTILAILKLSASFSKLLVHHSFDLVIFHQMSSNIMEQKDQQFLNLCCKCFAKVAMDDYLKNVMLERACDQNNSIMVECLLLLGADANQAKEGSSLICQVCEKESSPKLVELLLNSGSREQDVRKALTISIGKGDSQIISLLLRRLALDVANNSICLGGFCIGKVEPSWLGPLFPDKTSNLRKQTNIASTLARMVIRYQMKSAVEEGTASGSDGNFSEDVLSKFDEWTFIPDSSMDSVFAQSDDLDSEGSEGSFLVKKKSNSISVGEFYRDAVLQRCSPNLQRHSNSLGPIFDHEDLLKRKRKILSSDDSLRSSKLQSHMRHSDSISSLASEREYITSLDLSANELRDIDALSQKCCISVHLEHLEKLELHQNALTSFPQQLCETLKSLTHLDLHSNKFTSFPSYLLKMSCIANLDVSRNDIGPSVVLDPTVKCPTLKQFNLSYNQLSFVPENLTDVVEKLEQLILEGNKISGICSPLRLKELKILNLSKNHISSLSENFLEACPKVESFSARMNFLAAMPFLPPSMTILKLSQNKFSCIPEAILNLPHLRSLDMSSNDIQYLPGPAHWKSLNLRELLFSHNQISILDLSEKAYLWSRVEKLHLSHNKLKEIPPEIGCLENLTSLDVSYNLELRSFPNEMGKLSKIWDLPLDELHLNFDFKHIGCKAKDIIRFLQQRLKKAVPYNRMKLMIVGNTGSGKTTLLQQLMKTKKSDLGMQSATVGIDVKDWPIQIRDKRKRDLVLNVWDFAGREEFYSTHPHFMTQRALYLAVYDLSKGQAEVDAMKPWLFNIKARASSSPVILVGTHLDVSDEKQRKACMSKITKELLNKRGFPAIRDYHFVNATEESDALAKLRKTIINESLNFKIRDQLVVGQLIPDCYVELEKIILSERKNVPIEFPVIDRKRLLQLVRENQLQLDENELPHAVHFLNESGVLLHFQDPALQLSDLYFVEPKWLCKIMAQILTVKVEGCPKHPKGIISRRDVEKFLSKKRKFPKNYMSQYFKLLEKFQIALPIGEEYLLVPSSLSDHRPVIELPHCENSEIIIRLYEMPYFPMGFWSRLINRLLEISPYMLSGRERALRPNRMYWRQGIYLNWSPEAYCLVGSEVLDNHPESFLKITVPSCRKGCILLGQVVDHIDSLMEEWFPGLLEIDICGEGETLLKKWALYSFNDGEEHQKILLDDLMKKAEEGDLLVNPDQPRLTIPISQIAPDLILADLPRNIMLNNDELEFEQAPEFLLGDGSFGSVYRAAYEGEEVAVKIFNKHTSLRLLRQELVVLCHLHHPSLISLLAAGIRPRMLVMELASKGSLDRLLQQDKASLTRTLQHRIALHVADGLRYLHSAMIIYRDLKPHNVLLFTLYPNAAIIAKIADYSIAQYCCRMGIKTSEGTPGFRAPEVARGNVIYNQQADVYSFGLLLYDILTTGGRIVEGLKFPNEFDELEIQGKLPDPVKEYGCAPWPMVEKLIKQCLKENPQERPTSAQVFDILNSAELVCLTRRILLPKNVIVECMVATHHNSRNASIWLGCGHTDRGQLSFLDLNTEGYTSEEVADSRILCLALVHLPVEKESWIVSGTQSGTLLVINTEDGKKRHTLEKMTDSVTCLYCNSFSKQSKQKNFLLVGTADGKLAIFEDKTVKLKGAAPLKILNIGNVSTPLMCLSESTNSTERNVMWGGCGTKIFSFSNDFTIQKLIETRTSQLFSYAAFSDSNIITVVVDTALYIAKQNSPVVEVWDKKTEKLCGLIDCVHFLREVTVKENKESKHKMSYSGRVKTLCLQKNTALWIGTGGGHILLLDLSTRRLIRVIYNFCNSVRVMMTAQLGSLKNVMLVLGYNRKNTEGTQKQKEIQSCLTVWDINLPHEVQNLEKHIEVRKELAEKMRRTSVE
T4 sequence (Q5S006 whole entry): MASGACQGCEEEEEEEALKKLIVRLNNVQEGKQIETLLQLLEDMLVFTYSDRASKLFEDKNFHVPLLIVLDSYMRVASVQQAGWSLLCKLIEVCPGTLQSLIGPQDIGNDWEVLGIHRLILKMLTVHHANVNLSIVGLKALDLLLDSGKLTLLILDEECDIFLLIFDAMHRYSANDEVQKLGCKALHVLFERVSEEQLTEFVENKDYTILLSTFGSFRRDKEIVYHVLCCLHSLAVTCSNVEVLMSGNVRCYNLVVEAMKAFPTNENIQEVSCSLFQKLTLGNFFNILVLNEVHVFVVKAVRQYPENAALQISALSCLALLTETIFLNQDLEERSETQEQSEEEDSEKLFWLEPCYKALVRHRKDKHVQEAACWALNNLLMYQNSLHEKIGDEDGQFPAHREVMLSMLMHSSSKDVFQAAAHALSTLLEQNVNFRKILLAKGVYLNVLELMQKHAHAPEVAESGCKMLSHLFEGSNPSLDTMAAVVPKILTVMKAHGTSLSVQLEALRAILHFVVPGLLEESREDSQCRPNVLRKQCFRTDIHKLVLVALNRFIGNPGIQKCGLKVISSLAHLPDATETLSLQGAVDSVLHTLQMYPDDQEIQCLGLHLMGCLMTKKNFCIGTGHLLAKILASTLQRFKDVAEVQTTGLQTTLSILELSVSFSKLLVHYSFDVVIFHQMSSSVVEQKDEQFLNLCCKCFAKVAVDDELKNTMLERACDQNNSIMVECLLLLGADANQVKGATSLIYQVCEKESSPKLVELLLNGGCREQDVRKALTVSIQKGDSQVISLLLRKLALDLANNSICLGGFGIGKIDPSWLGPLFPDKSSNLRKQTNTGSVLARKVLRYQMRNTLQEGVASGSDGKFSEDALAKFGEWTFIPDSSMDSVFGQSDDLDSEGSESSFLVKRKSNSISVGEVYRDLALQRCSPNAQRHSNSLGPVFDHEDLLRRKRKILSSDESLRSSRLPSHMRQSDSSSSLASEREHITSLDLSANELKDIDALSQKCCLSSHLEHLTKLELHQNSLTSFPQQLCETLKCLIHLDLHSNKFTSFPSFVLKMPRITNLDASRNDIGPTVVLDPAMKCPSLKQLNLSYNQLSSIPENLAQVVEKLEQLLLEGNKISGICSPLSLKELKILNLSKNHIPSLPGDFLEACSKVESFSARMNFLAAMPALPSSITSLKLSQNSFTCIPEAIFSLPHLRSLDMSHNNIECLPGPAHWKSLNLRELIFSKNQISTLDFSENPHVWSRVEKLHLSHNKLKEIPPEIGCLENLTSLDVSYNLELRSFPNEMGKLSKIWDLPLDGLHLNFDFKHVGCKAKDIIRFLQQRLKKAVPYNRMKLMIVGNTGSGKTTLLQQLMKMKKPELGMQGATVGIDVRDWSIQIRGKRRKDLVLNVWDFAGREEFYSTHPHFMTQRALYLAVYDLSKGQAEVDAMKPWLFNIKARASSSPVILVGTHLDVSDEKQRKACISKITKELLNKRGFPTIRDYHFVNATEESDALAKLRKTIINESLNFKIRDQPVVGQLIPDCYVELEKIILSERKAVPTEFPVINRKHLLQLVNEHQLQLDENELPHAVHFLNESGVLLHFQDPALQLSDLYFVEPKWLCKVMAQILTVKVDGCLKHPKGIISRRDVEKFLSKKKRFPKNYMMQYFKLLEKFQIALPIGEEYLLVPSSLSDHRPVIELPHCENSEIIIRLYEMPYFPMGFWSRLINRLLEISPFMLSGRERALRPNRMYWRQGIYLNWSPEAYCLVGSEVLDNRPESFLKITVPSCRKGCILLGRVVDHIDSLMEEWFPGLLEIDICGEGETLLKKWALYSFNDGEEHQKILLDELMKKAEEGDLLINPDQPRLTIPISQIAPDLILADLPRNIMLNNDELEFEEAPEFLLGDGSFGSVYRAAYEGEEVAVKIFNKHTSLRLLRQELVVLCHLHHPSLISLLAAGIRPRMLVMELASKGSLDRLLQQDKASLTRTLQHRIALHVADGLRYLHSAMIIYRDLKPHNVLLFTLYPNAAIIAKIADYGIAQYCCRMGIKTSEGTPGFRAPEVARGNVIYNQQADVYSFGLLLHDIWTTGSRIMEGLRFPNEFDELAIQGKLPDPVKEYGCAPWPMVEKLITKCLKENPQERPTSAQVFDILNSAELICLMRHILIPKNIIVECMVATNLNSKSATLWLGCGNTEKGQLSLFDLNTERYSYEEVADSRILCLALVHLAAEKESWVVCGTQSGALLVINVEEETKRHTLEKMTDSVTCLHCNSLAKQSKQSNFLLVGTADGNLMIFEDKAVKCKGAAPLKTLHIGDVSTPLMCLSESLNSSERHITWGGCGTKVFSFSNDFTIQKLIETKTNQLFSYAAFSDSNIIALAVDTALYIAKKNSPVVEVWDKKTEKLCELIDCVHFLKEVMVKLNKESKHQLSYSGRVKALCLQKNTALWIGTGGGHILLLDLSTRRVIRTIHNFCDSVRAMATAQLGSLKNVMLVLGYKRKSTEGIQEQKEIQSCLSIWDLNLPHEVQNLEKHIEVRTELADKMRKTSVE
T3 sequence (Q5S006 whole entry): as above
T2 sequence (Q5S007 whole entry R50H/M2397T): as the sequence (Q5S007 whole entry R50H/G2019S/M2397T) above, with S2019G counted along it

Row | Molecule | LRRK2 autophosphorylation at position S1292 (LRRK2(G2019S)) | influence on LRRK2 kinase activity compared to the controls (LRRK2(G2019S)) | Functional Group (see FIG. 2d) (LRRK2(G2019S)) | Rab10 phosphorylation at position T72 (LRRK2(G2019S)) | effect on MLi-2-induced recruitment of LRRK2 to microtubules (mScarlet-LRRK2) | colocalization with endogenous LRRK2 on phagosomes (endogenous LRRK2) | binding result [1]
1 | B1 | inhibiting S1292 phosphorylation at a lesser extent | strongly decreased LRRK2 autophosphorylation and/or Rab10 phosphorylation | Group 2 | inhibit Rab10 phosphorylation | rescuing effect is most prominent | LRRK2 recruitment to phagosomes was slightly detectable | 
2 | B2 |  |  |  |  |  |  | binds
3 | B3 |  |  |  |  |  |  | binds
4 | B4 |  |  |  |  |  |  | binds
5 | B5 | inhibiting S1292 phosphorylation at a lesser extent | strongly decreased LRRK2 autophosphorylation and/or Rab10 phosphorylation | Group 2 | inhibit Rab10 phosphorylation | rescuing effect is most prominent | clearly colocalized with LRRK2 on zymosan-containing phagosomes | 
6 | B6 |  |  |  |  |  |  | binds
